From patent publication US20210332142A1 (Genentech, published 2021)
Numbering of substitutions follows the chain as printed. Read-outs that look alike come from different tables or passages of the source.

T1: recombinant cyno Tie2 extracellular domain (cynomolgus monkey, UniProt Q02763 23-748 (human entry))
T1 construct: also called Recombinant cyno Tie2 ECD; cy Tie2
T1 chain: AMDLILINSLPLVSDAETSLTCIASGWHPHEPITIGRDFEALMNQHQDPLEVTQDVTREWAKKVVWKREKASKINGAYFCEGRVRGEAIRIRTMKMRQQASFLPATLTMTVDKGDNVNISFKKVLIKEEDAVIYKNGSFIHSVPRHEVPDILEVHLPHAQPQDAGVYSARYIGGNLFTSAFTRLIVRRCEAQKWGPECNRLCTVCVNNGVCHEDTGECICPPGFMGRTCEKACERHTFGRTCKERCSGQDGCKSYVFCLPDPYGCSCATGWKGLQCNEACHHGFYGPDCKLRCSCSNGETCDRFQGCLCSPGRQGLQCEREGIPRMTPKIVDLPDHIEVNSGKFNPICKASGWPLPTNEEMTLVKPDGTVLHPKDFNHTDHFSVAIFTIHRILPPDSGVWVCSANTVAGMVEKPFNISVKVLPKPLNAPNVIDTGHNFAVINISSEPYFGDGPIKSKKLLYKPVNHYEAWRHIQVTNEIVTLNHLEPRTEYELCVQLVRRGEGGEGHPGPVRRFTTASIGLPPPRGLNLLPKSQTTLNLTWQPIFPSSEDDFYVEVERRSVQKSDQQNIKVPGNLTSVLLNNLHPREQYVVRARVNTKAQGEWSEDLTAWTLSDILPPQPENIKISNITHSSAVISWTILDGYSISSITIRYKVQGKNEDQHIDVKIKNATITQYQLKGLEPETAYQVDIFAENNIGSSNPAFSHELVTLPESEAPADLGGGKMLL

B1: Tie2.1.M100cA (antibody, IgG1, name in Kabat numbering, V domains shown)
VH: EVQLVESGGGLVQPGGSLRLSCAASGFTFSNTDISWVRQAPGKGLEWVGRISPSDGNTYYADSVKGRFTISADTSKNTAYLQMNSLRAEDTAVYYCARRTRWASWAADYWGQGTLVTVSS
VL: DIQMTQSPSSLSASVGDRVTITCRASQDVSTAVAWYQQKPGKAPKLLIYSASFLYSGVPSRFSGSGSGTDFTLTISSLQPEDFATYYCQQSYTTPPTFGQGTKVEIKR
notes: hIgG1
B2: Tie2.34 (antibody, IgG1, V domains shown)
VH: EVQLVESGGGLVQPGGSLRLSCAASGFTFSDTYIHWVRQAPGKGLEWVAVIYPDNGATYYADSVKGTYYADSVKGRFTISADTSKNTAYLQMNSLRAEDTAVYYCAREFACARCVYGMDYWGQGTLVTVSS
VL: B1 VL
notes: hIgG1 in Biacore; also called Ab34
B3: Tie2.1.M100cW (antibody, IgG1, name in Kabat numbering, V domains shown)
VH: B1 VH with A107W
VL: B1 VL
notes: hIgG1
B4: Tie2.1.M100cN (antibody, IgG1, name in Kabat numbering, V domains shown)
VH: B1 VH with A107N
VL: B1 VL
notes: hIgG1
B5: Tie2.1.M100cT (antibody, IgG1, name in Kabat numbering, V domains shown)
VH: B1 VH with A107T
VL: B1 VL
notes: hIgG1
B6: Tie2.1.M100cK (antibody, IgG1, name in Kabat numbering, V domains shown)
VH: B1 VH with A107K
VL: B1 VL
notes: hIgG1
B7: Tie2.1.M100cV (antibody, IgG1, name in Kabat numbering, V domains shown)
VH: B1 VH with A107V
VL: B1 VL
notes: hIgG1
B8: Tie2.1.M100cI (antibody, IgG1, name in Kabat numbering, V domains shown)
VH: B1 VH with A107I
VL: B1 VL
notes: hIgG1
B9: Tie2.1.M100cL (antibody, IgG1, name in Kabat numbering, V domains shown)
VH: B1 VH with A107L
VL: B1 VL
notes: hIgG1
B10: Tie2.1.M100cP (antibody, IgG1, name in Kabat numbering, V domains shown)
VH: B1 VH with A107P
VL: B1 VL
notes: hIgG1
B11: Tie2.1.M100cR (antibody, IgG1, name in Kabat numbering, V domains shown)
VH: B1 VH with A107R
VL: B1 VL
notes: hIgG1
B12: Tie2.1.M100cC (antibody, IgG1, name in Kabat numbering, V domains shown)
VH: B1 VH with A107C
VL: B1 VL
notes: hIgG1
B13: Tie2.1.M100cY (antibody, IgG1, name in Kabat numbering, V domains shown)
VH: B1 VH with A107Y
VL: B1 VL
notes: hIgG1
B14: Tie2.1.M100cH (antibody, IgG1, name in Kabat numbering, V domains shown)
VH: B1 VH with A107H
VL: B1 VL
notes: hIgG1
B15: Tie2.1.M100cG (antibody, IgG1, name in Kabat numbering, V domains shown)
VH: B1 VH with A107G
VL: B1 VL
notes: hIgG1

Legend:
[1] = molecular target: T2, recombinant human Tie2 extracellular domain (human, UniProt Q02763 23-748); test: SPR, IgG captured, 37C
T2 construct: whole entry named; also called Recombinant human Tie2 ECD; hu Tie2
T2 sequence (Q02763 23-748 limits assumed): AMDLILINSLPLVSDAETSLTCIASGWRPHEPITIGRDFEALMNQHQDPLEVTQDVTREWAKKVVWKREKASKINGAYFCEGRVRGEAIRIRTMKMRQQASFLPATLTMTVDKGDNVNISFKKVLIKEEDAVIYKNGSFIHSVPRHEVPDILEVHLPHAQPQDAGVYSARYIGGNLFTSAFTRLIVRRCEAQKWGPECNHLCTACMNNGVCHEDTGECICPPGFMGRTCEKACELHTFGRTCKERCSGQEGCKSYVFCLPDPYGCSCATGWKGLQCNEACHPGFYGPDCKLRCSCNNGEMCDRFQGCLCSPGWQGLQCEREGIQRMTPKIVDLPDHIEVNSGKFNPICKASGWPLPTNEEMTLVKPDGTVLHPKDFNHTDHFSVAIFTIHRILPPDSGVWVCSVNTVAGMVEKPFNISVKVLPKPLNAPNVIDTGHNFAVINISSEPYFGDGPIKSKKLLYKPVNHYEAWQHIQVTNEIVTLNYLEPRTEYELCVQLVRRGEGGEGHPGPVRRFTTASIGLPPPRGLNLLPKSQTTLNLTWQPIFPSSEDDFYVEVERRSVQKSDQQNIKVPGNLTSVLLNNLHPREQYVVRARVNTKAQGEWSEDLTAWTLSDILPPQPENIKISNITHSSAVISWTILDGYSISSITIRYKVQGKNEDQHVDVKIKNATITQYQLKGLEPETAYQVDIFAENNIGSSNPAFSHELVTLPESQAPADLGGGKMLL
Method: (§1) A human antibody capture chip was prepared using a Series S CM5 chip (GE Life Sciences), a human antibody capture kit (GE Life Sciences) and an amine coupling kit (GE Life Sciences). Antibodies diluted to 5 μg/ml in running buffer (10 mM HEPES, 150 mM NaCl, 0.05% Tween 20, 1 mM EDTA, pH 7.4) were non-covalently captured using a contact time of 20 seconds and a flow rate of 10 μl/minute. Binding to 300 nM and 1500 nM recombinant Tie2 was analyzed at 37° C. using a Single Cycle Kinetics method with a contact time of 60 seconds, a dissociation time of 120 seconds and a flow rate of 50 μl/min. Between cycles, the surface was regenerated by a 30 second injection of 3M MgCl₂ at a flow rate of 30 μl/min. Values for antibody capture levels and analyte binding levels were obtained from the Report Point Table (Biacore Evaluation Software v3.0, GE Life Sciences). […] Table 16: Experiment A; Table 17: Experiment B.

[2] = molecular target: T1, recombinant cyno Tie2 extracellular …; test: SPR, IgG captured, 37C
Method: as §1

rat Tie2ECD.flag = molecular target: T3, rat Tie2ECD.flag (rat, UniProt A0ABK0L6J5 19-740); test: Biacore, hIgG captured, 25C
T3 construct: extracellular domain; also called rTie2.flag; not shown: C-terminal Flag tag
Method: (§2) Monovalent affinities of selected anti-Tie2 hIgGs were determined using a Biacore T200 instrument (GE Life Sciences). Anti-humanFc was covalently immobilized on a Series S CM5 Biacore sensor chip to enable non-covalent capture of anti-Tie2 antibodies and binding of human or rat Tie2ECD.flag was monitored in real time at 25° C. using a multi-cycle kinetics experiment format. Between cycles, the surface was regenerated with 3 M MgCl₂. Monovalent affinities were determined by kinetic analysis, using Biacore Evaluation Software (GE Life Sciences) to fit a 1:1 binding model to the data.

human Tie2ECD.flag = molecular target: T4, human Tie2ECD.flag (human, UniProt Q02763 23-748); test: Biacore, hIgG captured, 25C
T4 construct: also called hTie2.flag; not shown: C-terminal Flag tag
T4 sequence (Q02763 23-748 limits assumed): as above
Method: as §2

[3] = molecular target: T2, recombinant human Tie2 extracellular …; test: SPR, IgG captured, 37C; remark: listed apart in the source
Method: as §1

[4] = molecular target: T1, recombinant cyno Tie2 extracellular …; test: SPR, IgG captured, 37C
Method: as §1

| Binder | Normalized Binding Signal, 300 nM [1] | Normalized Binding Signal, 1500 nM [1] | Normalized Binding Signal, 300 nM [2] | Normalized Binding Signal, 1500 nM [2] | Kd (rat Tie2ECD.flag) [nM] | Kd (human Tie2ECD.flag) [nM] | Normalized Binding Signal, 300 nM [3] | Normalized Binding Signal, 1500 nM [3] | Normalized Binding Signal, 300 nM [4] | Normalized Binding Signal, 1500 nM [4] |
| --- | --- | --- | --- | --- | --- | --- | --- | --- | --- | --- |
| B1 | 0.03 | 0.14 | 0.03 | 0.13 | – | – | – | – | – | – |
| B2 | – | – | – | – | 57 | 155 | – | – | – | – |
| B3 | 0.08 | 0.31 | 0.07 | 0.29 | – | – | – | – | – | – |
| B4 | 0.11 | 0.38 | 0.1 | 0.36 | – | – | – | – | – | – |
| B5 | 0.02 | 0.1 | 0.02 | 0.09 | – | – | – | – | – | – |
| B6 | 0.13 | 0.41 | 0.11 | 0.39 | – | – | – | – | – | – |
| B7 | 0.04 | 0.16 | 0.04 | 0.15 | – | – | – | – | – | – |
| B8 | 0.03 | 0.14 | 0.03 | 0.13 | – | – | 0.04 | 0.14 | 0.03 | 0.12 |
| B9 | 0.12 | 0.41 | 0.1 | 0.39 | – | – | 0.13 | 0.42 | 0.11 | 0.4 |
| B10 | 0.02 | 0.11 | 0.02 | 0.1 | – | – | – | – | – | – |
| B11 | 0.06 | 0.22 | 0.05 | 0.2 | – | – | – | – | – | – |
| B12 | 0.11 | 0.37 | 0.1 | 0.35 | – | – | – | – | – | – |
| B13 | 0.15 | 0.47 | 0.13 | 0.45 | – | – | 0.15 | 0.46 | 0.13 | 0.44 |
| B14 | 0.11 | 0.39 | 0.1 | 0.36 | – | – | – | – | – | – |
| B15 | 0.06 | 0.21 | 0.05 | 0.2 | – | – | – | – | – | – |
